Assay results as given in patent publication US20100129369A1 (Eli Lilly, published 2010).

Assays:
human c-Met [1] = target: T1, human c-Met (human, UniProt P08581 25-1390); assay: cell-based or functional assay
human c-Met [2] = target: T1, human c-Met; assay: cell-based or functional assay; remark: listed apart in the source
human c-Met [3] = target: T1, human c-Met; assay: cell-based or functional assay; remark: listed apart in the source
human c-Met [4] = target: T1, human c-Met; assay: cell-based or functional assay; remark: listed apart in the source
Human c-Met-Flis-Fc ECD [5] = target: T2, Human c-Met-Flis-Fc ECD (human); assay: ELISA, coated ECD-Fc, antibody 0.010 ng/mL
T2 construct: also called human c-Met extracellular domain (ECD)-Fc-Flis fusion; Human cMet-ECD-Fc-Flis
T2 sequence (chain, as listed by the source limits assumed): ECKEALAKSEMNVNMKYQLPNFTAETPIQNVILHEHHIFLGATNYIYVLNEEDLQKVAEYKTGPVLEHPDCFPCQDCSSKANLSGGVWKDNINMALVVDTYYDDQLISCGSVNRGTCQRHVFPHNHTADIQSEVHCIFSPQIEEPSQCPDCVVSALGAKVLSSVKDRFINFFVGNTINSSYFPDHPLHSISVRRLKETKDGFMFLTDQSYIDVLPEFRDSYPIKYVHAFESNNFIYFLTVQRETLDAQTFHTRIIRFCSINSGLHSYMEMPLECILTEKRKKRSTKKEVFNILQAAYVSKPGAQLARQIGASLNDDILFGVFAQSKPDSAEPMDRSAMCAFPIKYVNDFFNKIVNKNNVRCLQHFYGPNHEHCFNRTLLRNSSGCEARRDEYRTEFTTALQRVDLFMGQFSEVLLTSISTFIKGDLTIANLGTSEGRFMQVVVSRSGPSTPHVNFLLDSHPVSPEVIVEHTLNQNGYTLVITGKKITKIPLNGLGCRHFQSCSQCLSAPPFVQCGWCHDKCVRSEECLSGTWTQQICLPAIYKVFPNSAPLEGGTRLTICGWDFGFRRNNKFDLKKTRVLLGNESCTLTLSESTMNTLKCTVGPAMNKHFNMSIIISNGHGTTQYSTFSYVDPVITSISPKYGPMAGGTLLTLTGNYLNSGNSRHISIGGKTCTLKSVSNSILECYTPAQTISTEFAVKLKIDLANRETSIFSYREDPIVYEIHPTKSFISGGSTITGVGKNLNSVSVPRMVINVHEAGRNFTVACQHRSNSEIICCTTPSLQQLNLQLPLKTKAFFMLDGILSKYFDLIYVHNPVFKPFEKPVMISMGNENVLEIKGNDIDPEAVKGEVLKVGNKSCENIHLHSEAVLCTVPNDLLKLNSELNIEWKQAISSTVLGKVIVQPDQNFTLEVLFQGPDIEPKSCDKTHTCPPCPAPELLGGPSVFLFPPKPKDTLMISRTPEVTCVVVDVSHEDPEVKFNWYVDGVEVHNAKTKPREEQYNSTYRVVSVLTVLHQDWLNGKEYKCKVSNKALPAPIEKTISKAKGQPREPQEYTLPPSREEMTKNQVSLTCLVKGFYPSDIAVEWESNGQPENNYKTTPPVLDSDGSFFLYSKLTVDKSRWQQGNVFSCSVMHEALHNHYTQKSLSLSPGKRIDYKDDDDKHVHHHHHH
Experimental: (§1) Wells of 96-well EIA/RIA high binding plates (Costar, #2592) are coated with 100 μL of 1 μg/mL human c-Met extracellular domain (ECD)-Fc-Flis fusion (SEQ ID NO:72), RON-ECD-Fc (R&D Systems, #1947-MS), or PlexinA2-ECD-Fc (Abnova, Taipei, Taiwan #H00005362-P01) in coating buffer (BioFX Labs, # COAT-1000-01) overnight at 4° C. […] After the plates are washed, 100 μL/well of substrate solution (BioFx, #TMBW-1000-01) are added and the plates are incubated for 10 min. at room temperature. 100 μL/well of stop solution (BioFx, # LSTP-1000-01) are added to stop the reaction. The colorimetric signals are developed and read at 450 nm using a SpectraMax 190 plate reader (Molecular Devices, Sunnyvale, Calif.). c-Met antibody binding to c-Met, RON and PlexinA2 ECDs is proportional to color signal production.

Human c-Met-Flis-Fc ECD [6] = target: T2, Human c-Met-Flis-Fc ECD; assay: ELISA, coated ECD-Fc, antibody 16666.667 ng/mL
Experimental: as §1

Human c-Met-Flis-Fc ECD [7] = target: T2, Human c-Met-Flis-Fc ECD; assay: ELISA, coated ECD-Fc, antibody 0.000 ng/mL
Experimental: as §1

Rat c-Met-Flis-Fc ECD [8] = target: T3, Rat c-Met-Flis-Fc ECD (rat); assay: SPR Biacore, antibody captured, heterogeneous ligand model, second affinity
T3 construct: also called Rat cMet-ECD-Fc-Flis; rat c-Met ECD
T3 sequence (chain, as listed by the source limits assumed): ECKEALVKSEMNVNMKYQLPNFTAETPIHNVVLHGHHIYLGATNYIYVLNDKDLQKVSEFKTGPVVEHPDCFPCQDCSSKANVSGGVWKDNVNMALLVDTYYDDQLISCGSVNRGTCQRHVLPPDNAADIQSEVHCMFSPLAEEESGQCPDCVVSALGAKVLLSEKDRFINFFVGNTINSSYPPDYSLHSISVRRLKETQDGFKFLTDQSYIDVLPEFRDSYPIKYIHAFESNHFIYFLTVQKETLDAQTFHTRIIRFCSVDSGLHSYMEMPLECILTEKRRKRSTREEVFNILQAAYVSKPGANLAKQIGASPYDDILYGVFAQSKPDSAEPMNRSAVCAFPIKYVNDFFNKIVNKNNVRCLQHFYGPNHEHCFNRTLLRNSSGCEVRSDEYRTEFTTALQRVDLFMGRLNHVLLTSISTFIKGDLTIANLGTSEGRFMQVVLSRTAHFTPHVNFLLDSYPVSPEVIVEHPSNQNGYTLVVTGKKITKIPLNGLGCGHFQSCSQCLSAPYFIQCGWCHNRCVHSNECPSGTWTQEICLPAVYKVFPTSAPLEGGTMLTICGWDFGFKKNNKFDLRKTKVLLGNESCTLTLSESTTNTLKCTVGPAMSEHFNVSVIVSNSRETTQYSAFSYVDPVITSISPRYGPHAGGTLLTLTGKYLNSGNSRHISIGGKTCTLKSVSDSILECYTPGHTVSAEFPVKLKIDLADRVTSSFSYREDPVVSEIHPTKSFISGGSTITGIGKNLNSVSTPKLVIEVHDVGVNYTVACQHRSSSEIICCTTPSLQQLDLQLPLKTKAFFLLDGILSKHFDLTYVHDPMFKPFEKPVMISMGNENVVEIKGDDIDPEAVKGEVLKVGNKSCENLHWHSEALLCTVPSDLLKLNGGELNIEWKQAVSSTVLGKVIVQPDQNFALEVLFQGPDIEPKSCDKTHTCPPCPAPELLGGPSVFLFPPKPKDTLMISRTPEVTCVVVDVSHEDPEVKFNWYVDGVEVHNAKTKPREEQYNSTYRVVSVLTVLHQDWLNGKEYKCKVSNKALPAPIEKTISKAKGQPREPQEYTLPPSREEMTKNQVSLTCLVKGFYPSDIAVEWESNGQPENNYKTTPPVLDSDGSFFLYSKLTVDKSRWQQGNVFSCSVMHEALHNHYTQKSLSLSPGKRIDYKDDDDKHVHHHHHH
Experimental: (§2) A Biacore® 2000 instrument is used to measure the binding kinetics of c-Met antibodies to human, cynomolgus monkey, and rat c-Met ECDs. Measurements are performed at 25° C. Samples are dissolved in HBS-EP buffer (150 mM sodium chloride, 3 mM EDTA, 0.005% (w/v) surfactant P-20, and 10 mM N-2-hydroxyethylpiperazine-N′-2-ethanesulfonic acid (HEPES) at pH 7.4; #BR-1001-88).
(§3) Binding is evaluated using multiple cycles. Each cycle is performed at a flow rate of 50 μL/min., and consists of the following steps: injection of about 10 μL of a c-Met antibody at 10 μg/mL aiming at a capture of 40-100 RUs, injection of 250 μL of human, cynomolgus, or rat c-Met-Flis-Fc ECD (starting at 100 nM and using two-fold serial dilutions for each cycle) followed by 20 min. for dissociation, and regeneration using about 30 μL of 10 mM glycine hydrochloride, pH 1.5. […]

Human c-Met-Flis-Fc ECD [9] = target: T2, Human c-Met-Flis-Fc ECD; assay: ELISA, coated ECD-Fc, antibody 2.143 ng/mL
Experimental: as §1

Human c-Met-Flis-Fc ECD [10] = target: T2, Human c-Met-Flis-Fc ECD; assay: ELISA, coated ECD-Fc, antibody 0.357 ng/mL
Experimental: as §1

Human c-Met-Flis-Fc ECD [11] = target: T2, Human c-Met-Flis-Fc ECD; assay: ELISA, coated ECD-Fc, antibody 12.860 ng/mL
Experimental: as §1

Rat c-Met-Flis-Fc ECD [12] = target: T3, Rat c-Met-Flis-Fc ECD; assay: SPR Biacore, antibody captured, heterogeneous ligand model, first affinity
Experimental: as §2, §3

Human c-Met-Flis-Fc ECD [13] = target: T2, Human c-Met-Flis-Fc ECD; assay: ELISA, coated ECD-Fc, antibody 0.002 ng/mL
Experimental: as §1

Human c-Met-Flis-Fc ECD [14] = target: T2, Human c-Met-Flis-Fc ECD; assay: ELISA, coated ECD-Fc, antibody 100000.000 ng/mL
Experimental: as §1

[15] = target: T4, Cynomolgus Monkey c-Met-Flis-Fc ECD (cynomolgus monkey); assay: SPR Biacore, antibody captured, ECD-Fc analyte, 1:1 model
T4 construct: also called Cynomolgus Monkey cMet-ECD-Fc-Flis; cynomolgus monkey c-Met ECD
T4 sequence (chain, as listed by the source limits assumed): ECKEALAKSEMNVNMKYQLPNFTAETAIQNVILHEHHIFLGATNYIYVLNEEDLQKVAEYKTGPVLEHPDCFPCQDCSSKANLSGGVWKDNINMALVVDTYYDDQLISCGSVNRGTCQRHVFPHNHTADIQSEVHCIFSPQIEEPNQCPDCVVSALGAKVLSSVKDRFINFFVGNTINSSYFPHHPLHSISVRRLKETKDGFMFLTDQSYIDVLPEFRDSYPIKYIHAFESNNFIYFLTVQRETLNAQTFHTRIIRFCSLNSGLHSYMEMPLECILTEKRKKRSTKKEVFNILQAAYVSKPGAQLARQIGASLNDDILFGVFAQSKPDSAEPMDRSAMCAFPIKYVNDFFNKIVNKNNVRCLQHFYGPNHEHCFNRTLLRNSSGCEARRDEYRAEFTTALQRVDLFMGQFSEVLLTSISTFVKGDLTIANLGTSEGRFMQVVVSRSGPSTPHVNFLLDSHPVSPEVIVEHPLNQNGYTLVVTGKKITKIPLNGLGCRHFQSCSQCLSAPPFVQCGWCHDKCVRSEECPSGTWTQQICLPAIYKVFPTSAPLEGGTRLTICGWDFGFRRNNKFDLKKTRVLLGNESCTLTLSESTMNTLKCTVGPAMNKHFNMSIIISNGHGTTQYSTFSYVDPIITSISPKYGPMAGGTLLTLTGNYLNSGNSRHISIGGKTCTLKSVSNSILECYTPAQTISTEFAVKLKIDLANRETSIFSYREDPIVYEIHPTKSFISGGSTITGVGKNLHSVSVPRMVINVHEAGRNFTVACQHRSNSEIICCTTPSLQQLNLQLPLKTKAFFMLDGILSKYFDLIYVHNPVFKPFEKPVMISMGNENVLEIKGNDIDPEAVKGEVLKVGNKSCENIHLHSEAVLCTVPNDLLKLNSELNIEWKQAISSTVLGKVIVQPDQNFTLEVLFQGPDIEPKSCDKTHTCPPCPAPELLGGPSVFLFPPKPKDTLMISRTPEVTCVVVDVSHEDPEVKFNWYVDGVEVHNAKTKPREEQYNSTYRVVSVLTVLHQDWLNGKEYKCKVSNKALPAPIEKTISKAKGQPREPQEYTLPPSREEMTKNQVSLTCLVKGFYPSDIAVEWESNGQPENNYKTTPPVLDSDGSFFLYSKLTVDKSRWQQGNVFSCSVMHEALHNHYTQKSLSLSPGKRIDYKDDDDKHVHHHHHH
Experimental: as §2
(§4) Binding is evaluated using multiple cycles. Each cycle is performed at a flow rate of 50 μL/min., and consists of the following steps: injection of about 10 μL of a c-Met antibody at 10 μg/mL aiming at a capture of 40-100 RUs, injection of 250 μL of human, cynomolgus, or rat c-Met-Flis-Fc ECD (starting at 100 nM and using two-fold serial dilutions for each cycle) followed by 20 min. for dissociation, and regeneration using about 30 μL of 10 mM glycine hydrochloride, pH 1.5. Association and dissociation rates for each cycle are evaluated using a “1:1 (Langmuir) binding” model in the BIAevaluation software, version 4.1.

Human c-Met-Flis-Fc ECD [16] = target: T2, Human c-Met-Flis-Fc ECD; assay: as above
Experimental: as §2, §4

Human c-Met-Flis-Fc ECD [17] = target: T2, Human c-Met-Flis-Fc ECD; assay: ELISA, coated ECD-Fc, antibody 2777.778 ng/mL
Experimental: as §1

Human c-Met-Flis-Fc ECD [18] = target: T2, Human c-Met-Flis-Fc ECD; assay: ELISA, coated ECD-Fc, antibody 77.160 ng/mL
Experimental: as §1

Human c-Met-Flis-Fc ECD [19] = target: T2, Human c-Met-Flis-Fc ECD; assay: ELISA, coated ECD-Fc, antibody 462.963 ng/mL
Experimental: as §1

Human c-Met-Flis-Fc ECD [20] = target: T2, Human c-Met-Flis-Fc ECD; assay: ELISA, coated ECD-Fc, antibody 0.060 ng/mL
Experimental: as §1

T1 sequence (P08581 25-1390): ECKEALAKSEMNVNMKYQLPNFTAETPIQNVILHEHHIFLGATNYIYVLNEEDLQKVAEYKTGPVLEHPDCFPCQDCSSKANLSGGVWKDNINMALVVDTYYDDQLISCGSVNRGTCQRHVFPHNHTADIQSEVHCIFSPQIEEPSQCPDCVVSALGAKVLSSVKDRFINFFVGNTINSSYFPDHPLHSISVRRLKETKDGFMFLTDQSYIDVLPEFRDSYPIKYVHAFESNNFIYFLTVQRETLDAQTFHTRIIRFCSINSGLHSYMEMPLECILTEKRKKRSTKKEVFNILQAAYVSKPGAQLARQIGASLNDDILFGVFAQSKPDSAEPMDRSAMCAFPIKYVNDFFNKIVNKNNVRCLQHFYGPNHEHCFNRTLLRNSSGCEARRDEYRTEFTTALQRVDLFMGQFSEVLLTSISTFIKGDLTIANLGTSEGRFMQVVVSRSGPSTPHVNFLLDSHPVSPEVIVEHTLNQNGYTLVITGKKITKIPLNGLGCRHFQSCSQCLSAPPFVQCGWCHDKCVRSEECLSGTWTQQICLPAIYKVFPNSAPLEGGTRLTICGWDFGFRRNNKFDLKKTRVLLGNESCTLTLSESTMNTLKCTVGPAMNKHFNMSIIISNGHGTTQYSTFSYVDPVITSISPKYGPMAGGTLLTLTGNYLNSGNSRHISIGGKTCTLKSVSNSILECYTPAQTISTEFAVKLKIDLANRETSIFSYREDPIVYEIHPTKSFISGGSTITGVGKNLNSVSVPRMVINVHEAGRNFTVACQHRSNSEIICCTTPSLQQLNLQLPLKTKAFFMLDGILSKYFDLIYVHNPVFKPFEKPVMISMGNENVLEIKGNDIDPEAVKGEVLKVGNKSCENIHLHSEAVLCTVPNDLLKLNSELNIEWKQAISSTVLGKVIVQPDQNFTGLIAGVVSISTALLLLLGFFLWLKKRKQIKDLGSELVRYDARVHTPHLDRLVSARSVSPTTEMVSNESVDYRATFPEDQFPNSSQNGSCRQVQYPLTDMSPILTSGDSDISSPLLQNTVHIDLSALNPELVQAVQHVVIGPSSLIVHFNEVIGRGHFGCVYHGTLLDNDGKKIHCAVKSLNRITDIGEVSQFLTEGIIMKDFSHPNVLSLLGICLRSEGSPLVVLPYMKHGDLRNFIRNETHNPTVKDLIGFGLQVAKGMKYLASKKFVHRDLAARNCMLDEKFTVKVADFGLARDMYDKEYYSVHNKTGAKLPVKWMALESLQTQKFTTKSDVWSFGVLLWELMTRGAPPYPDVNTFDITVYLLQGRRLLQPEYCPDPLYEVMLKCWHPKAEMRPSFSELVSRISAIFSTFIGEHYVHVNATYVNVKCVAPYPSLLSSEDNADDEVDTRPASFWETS

B1: D11-8B8 (antibody, human IgG2, kappa, V domains shown)
VH: QVQLVQSGAEVKKPGSSVKVSCKASGYTFTSRYIHWVRQAPGQGLEWMGWIYPVTGDTYYIEKFKGRVTITADKSTSTAYMELSSLRSEDTAVYYCARGYGAFFYWGQGTLVTVSS
VL: EIVLTQSPGTLSLSPGERATLSCSVSSSISSTNLHWYQQKPGQAPRLLIYGTSYLASGIPDRFSGSGSGTDFTLTISRLEPEDFAVYYCQQWSSYPYSFGQGTKLEIKR
With B1 the “3H-Thymidine Incorporation in Caki-1 Cells in the Absence of HGF (AVG CPM), antibody dose 0.1 ng/mL” value (human c-Met [1]) was 15300 CPM, the “3H-Thymidine Incorporation in Caki-1 Cells in the Absence of HGF (AVG CPM), antibody dose 0.4 ng/mL” value (human c-Met [1]) was 14400 CPM and the “3H-Thymidine Incorporation in Caki-1 Cells in the Absence of HGF (AVG CPM), antibody dose 2.6 ng/mL” value (human c-Met [1]) was 14100 CPM. The “3H-Thymidine Incorporation in Caki-1 Cells in the Absence of HGF (AVG CPM), antibody dose 15.4 ng/mL” value (human c-Met [1]) was 13500 CPM, the “3H-Thymidine Incorporation in Caki-1 Cells in the Absence of HGF (AVG CPM), antibody dose 92.6 ng/mL” value (human c-Met [1]) was 13700 CPM and the “3H-Thymidine Incorporation in Caki-1 Cells in the Absence of HGF (AVG CPM), antibody dose 555.6 ng/mL” value (human c-Met [1]) was 14000 CPM. The “3H-Thymidine Incorporation in Caki-1 Cells in the Absence of HGF (AVG CPM), antibody dose 3333.3 ng/mL” value (human c-Met [1]) was 15700 CPM, the “3H-Thymidine Incorporation in Caki-1 Cells in the Absence of HGF (AVG CPM), antibody dose 20000.0 ng/mL” value (human c-Met [1]) was 15900 CPM and the “Staurosporine-Induced Apoptosis in Caki-1 Cells, Average A450 nm, antibody dose 3 ng/mL” value (human c-Met [2]) was 1.02 A450 nm. For the same binder, the “Staurosporine-Induced Apoptosis in Caki-1 Cells, Average A450 nm, antibody dose 30 ng/mL” value (human c-Met [2]) was 0.91 A450 nm, the “Staurosporine-Induced Apoptosis in Caki-1 Cells, Average A450 nm, antibody dose 300 ng/mL” value (human c-Met [2]) was 0.81 A450 nm and the “Staurosporine-Induced Apoptosis in Caki-1 Cells, Average A450 nm, antibody dose 3000 ng/mL” value (human c-Met [2]) was 0.91 A450 nm. The “Staurosporine-Induced Apoptosis in Caki-1 Cells, Average A450 nm, antibody dose 30000 ng/mL” value (human c-Met [2]) was 0.87 A450 nm, the “Percent of DU145 Cells in Colonies (scatter assay), antibody 20 ug/mL” value (human c-Met [3]) was 25.6% and the “3H-Thymidine Incorporation in Primary Human Hepatocytes in the Absence of HGF (average), dose 0.0032 ug/mL” value (human c-Met [4]) was 611. For the same binder, the “3H-Thymidine Incorporation in Primary Human Hepatocytes in the Absence of HGF (average), dose 0.016 ug/mL” value (human c-Met [4]) was 715, the “3H-Thymidine Incorporation in Primary Human Hepatocytes in the Absence of HGF (average), dose 0.08 ug/mL” value (human c-Met [4]) was 1120 and the “3H-Thymidine Incorporation in Primary Human Hepatocytes in the Absence of HGF (average), dose 0.4 ug/mL” value (human c-Met [4]) was 1230. For the same binder, the “3H-Thymidine Incorporation in Primary Human Hepatocytes in the Absence of HGF (average), dose 2 ug/mL” value (human c-Met [4]) was 1430 and the “3H-Thymidine Incorporation in Primary Human Hepatocytes in the Absence of HGF (average), dose 10 ug/mL” value (human c-Met [4]) was 1700.

B2: D11-S17Y (antibody, human IgG2, kappa, V domains shown)
VH: QVQLVQSGAEVKKPGSSVKVSCKASGYTFTSRYIHWVRQAPGQGLEWMGWIYPVTGDTYYNEKFKGRVTITADKSTSTAYMELSSLRSEDTAVYYCARGYGAFYYWGQGTLVTVSS
VL: EIVLTQSPGTLSLSPGERATLSCSVSSSISSTNLHWYQQKPGQAPRLLIYGTSYLASGIPDRFSGSGSGTDFTLTISRLEPEDFAVYYCQQWSSYPYSFGQGTKLEIKR
notes: Human engineered IgG2, kappa
With B2 the “Average A450 nm” value (Human c-Met-Flis-Fc ECD [5]) was 0.314 A450 nm, the “Average A450 nm” value (Human c-Met-Flis-Fc ECD [6]) was 4 A450 nm and the “Average A450 nm” value (Human c-Met-Flis-Fc ECD [7]) was 0.315 A450 nm. For the same binder, the Kd (Rat c-Met-Flis-Fc ECD [8]) was 1.2 nM, the koff (Rat c-Met-Flis-Fc ECD [8]) was 0.0003 s⁻¹ and the kon (Rat c-Met-Flis-Fc ECD [8]) was 250000 M⁻¹ s⁻¹. The “Average A450 nm” value (Human c-Met-Flis-Fc ECD [9]) was 2.14 A450 nm, the “Average A450 nm” value (Human c-Met-Flis-Fc ECD [10]) was 0.789 A450 nm and the “Average A450 nm” value (Human c-Met-Flis-Fc ECD [11]) was 4 A450 nm. It also gave a Kd (Rat c-Met-Flis-Fc ECD [12]) of 286 nM, a koff (Rat c-Met-Flis-Fc ECD [12]) of 0.0189 s⁻¹ and a kon (Rat c-Met-Flis-Fc ECD [12]) of 66000 M⁻¹ s⁻¹. The “Average A450 nm” value (Human c-Met-Flis-Fc ECD [13]) was 0.309 A450 nm, the “Average A450 nm” value (Human c-Met-Flis-Fc ECD [14]) was 4 A450 nm and the Kd [15] was 5.1 nM. It also gave a koff [15] of 0.00036 s⁻¹, a kon [15] of 70000 M⁻¹ s⁻¹ and a Kd (Human c-Met-Flis-Fc ECD [16]) of 4.2 nM. The koff (Human c-Met-Flis-Fc ECD [16]) was 0.00028 s⁻¹, the kon (Human c-Met-Flis-Fc ECD [16]) was 70000 M⁻¹ s⁻¹ and the “Average A450 nm” value (Human c-Met-Flis-Fc ECD [17]) was 4 A450 nm. The “Average A450 nm” value (Human c-Met-Flis-Fc ECD [18]) was 4 A450 nm, the “Average A450 nm” value (Human c-Met-Flis-Fc ECD [19]) was 4 A450 nm and the “Average A450 nm” value (Human c-Met-Flis-Fc ECD [20]) was 0.374 A450 nm.
